Results reported in US20150218251A1 (NATIONAL CHENG KUNG UNIVERSITY, published 2015).
Numbering of substitutions follows the chain as printed.

B1: Wild type FNIII 9-10 (SEQ ID NO: 4) (ligand)
chain: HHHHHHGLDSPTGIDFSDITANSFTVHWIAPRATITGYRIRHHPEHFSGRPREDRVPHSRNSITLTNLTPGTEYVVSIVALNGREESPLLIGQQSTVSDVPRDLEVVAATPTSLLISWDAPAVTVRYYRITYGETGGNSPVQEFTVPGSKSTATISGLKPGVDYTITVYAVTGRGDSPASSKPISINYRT
notes: exact N-terminus uncertain; also called Wild-type human FN III 9-10; Control
B2: FNIII 10 C-X7-C (SEQ ID NO: 6, VCPRGDMPDCSK) (designed binder)
chain: HHHHHHVSDVPRDLEVVAATPTSLLISWDAPAVTVRYYRITYGETGGNSPVQEFTVPGSKSTATISGLKPGVDYTITVYAVCPRGDMPDCSKPISINYRT
B3: Wild type FNIII 10 (SEQ ID NO: 2, …) (ligand)
chain: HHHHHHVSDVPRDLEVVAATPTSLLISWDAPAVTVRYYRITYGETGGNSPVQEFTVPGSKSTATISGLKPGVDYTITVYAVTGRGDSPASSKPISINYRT
notes: also called FNIII 10 wild type; human fibronectin type III domain module 10
B4: FNIII 10 C-X7-C (SEQ ID NO: 10, VCARGDNPDCSK) (designed binder)
chain: B2 chain with P83A, M87N
B5: FNIII 10 C-X7-C (SEQ ID NO: 8, VCPRGDWNECSK) (designed binder)
chain: B2 chain with M87W, P88N, D89E
notes: Engineered intradomain disulfide bond Cys1491-Cys1499; exact N-terminus uncertain
B6: FNIII 10 variant (SEQ ID NO: 48, VTPRGDMPDSSK) (designed binder)
chain: B2 chain with C82T, C90S
notes: also called FNIII 10 (PRGDMPD) protein; FNIII 10 PRGDMPD variant
B7: Control FNIII 10 mutant (SEQ ID NO: 50, VTPRGDWNEGSK) (designed binder)
chain: B2 chain with C82T, M87W, P88N, D89E, C90G
notes: exact N-terminus uncertain; also called FNIII 10 variant

What follows are binders tested against T1, integrin αvβ3 (UniProt P06756 31-1048; P05106 27-788) (assay: cell adhesion inhibition assay (Table 5)).
T1 construct: whole, on cells; also called CHO-αvβ3
T1 sequence (P06756 31-1048, chain 1 of 2): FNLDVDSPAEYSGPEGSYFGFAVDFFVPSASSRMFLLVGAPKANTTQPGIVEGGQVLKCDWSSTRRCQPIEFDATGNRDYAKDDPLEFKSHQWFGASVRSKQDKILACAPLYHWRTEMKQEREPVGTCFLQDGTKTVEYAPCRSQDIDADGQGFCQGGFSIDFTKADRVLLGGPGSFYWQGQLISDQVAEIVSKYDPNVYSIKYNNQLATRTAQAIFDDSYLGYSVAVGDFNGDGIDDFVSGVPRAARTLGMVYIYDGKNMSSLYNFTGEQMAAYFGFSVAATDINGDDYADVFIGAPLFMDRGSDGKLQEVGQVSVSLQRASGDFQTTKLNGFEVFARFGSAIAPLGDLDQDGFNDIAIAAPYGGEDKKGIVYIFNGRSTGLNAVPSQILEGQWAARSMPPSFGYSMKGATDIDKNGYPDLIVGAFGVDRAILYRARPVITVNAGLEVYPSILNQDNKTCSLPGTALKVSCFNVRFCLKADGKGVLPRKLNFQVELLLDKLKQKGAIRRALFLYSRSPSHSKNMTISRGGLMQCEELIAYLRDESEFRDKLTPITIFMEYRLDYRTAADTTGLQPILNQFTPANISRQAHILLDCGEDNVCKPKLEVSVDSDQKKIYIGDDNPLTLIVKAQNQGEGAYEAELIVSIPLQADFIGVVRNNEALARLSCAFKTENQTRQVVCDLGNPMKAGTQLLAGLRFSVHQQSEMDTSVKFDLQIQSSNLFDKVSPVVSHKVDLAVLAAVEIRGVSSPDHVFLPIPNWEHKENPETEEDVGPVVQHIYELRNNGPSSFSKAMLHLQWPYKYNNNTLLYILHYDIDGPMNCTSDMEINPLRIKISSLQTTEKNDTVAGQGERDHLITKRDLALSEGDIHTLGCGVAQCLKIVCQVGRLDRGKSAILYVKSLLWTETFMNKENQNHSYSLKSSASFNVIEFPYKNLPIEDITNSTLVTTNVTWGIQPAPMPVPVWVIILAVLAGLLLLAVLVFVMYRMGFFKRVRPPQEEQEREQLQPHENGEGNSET
T1 sequence (P05106 27-788, chain 2 of 2): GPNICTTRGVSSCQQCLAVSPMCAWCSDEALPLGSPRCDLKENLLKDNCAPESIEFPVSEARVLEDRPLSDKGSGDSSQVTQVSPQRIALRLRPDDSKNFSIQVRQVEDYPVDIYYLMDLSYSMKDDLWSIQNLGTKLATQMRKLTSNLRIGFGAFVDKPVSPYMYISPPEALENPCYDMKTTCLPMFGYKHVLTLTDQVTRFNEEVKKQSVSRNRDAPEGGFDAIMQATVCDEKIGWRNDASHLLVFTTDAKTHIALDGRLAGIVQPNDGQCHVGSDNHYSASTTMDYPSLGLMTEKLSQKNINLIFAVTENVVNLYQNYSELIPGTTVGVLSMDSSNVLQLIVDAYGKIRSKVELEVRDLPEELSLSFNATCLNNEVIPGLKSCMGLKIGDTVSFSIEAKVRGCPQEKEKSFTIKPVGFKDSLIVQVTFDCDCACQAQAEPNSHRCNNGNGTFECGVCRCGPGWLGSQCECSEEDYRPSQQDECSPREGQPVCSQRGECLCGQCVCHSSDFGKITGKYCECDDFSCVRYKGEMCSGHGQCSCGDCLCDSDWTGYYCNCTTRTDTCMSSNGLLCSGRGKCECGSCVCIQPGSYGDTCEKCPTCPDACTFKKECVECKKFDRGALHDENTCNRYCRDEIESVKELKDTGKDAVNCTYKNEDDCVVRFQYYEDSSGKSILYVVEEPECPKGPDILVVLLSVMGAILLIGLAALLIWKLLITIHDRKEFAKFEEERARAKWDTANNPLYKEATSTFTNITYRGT
Procedure: (§1) Briefly, 96-well Immulon-2 microtiter plates (Costar, Corning, N.Y.) were coated with 100 μl of phosphate-buffered saline (PBS: 10 mM phosphate buffer, 0.15M NaCl, pH 7.4) containing substrates at a concentration of 50-500 nM, and incubated overnight at 4° C. […] Non-specific protein binding sites were blocked by incubating each well with 200 μl of heat-denatured 1% bovine serum albumin (BSA, Calbiochem) at room temperature (25° C.) for 1.5 hr. Afterwards, the blocking heat-denatured BSA was discarded and each well was washed twice with 200 μl of PBS.
(§2) Chinese hamster ovary (CHO) cells expressing αvβ3 (CHO-αvβ3) and α5β1 (CHO-α5β1) integrins were maintained in 100 μl of Dulbecco's Modified Eagle's Medium (DMEM) medium. Both CHO-αvβ3 and CHO-α5β1 were kind gifts of Dr. Y. Takada (Scripps Research Institute) established by stable transfection with a neomycin-resistant gene. CHO cells growing in log phase were detached by trypsinization and used in the assay at 3×10⁵ cells/ml. FNIII 9-10, FNIII 10 and variants thereof were added to the cultured cells at the concentrations of 0.001-500 μM and incubated at 37° C. in 5% CO₂ for 15 minutes. […]
(§3) Bound cells were quantified by crystal violet staining. […] The resulting absorbance was read at 600 nm and the readings were correlated with the number of adhering cells.

B1: no binding (tested: >3119 nM).

What follows are binders tested against T2, integrin αIIbβ3 (UniProt P08514 32-1039; P05106 27-788) (assay: cell adhesion inhibition assay (Table 5)).
T2 construct: whole, on cells
T2 sequence (P08514 32-1039, chain 1 of 2): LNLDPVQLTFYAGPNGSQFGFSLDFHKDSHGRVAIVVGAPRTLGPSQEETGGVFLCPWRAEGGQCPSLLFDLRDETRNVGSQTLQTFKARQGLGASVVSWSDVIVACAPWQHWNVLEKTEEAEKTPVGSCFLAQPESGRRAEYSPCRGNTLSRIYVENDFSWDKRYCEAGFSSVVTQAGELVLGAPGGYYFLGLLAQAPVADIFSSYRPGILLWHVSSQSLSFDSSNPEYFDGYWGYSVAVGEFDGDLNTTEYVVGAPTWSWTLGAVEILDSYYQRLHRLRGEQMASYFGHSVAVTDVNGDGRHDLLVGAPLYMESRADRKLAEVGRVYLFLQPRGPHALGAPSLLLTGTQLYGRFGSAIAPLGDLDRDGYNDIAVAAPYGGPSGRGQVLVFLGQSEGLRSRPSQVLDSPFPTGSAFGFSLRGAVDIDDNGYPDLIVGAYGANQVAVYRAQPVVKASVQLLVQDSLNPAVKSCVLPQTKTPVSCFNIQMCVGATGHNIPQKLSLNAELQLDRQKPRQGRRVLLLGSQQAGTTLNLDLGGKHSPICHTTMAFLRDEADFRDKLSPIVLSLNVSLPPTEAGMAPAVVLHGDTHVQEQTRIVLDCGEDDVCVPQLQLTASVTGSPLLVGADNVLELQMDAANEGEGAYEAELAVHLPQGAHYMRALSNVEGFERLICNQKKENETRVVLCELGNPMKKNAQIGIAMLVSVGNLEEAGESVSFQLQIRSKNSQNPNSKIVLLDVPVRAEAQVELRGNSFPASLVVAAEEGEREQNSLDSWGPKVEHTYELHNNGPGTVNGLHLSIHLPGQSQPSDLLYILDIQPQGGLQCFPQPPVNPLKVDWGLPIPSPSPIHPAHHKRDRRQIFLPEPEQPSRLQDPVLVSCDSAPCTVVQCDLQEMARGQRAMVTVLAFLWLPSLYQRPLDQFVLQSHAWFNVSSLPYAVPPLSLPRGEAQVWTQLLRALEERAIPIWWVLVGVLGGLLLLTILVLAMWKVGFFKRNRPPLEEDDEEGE
T2 sequence (P05106 27-788, chain 2 of 2): as the sequence (P05106 27-788, chain 2 of 2) above
Procedure: as §1, §2, §3

B1: no binding (tested: >4798 nM).

These binders were tested against T1, integrin αvβ3 (assay: cell adhesion inhibition assay (Table 4)).
Procedure: as §1
(§4) Chinese hamster ovary (CHO) cells expressing αvβ3 (CHO-αvβ3) and α5β1 (CHO-α5β1) integrins were maintained in 100 μl of Dulbecco's Modified Eagle's Medium (DMEM) medium. Both CHO-αvβ3 and CHO-α5β1 were kind gifts of Dr. Y. Takada (Scripps Research Institute) established by stable transfection with a neomycin-resistant gene. CHO cells growing in log phase were detached by trypsinization and used in the assay at 3×10⁵ cells/ml. FNIII 9-10, FNIII 10 and variants thereof were added to the cultured cells at the concentrations of 0.001-500 μM and incubated at 37° C. in 5% CO₂ for 15 minutes. The treated cells were then added into the coated plate and incubated at 37° C. in 5% CO₂ for 1 hour. The incubation solution was then discarded and non-adhered cells were removed by washing twice with 200 μl PBS.
(§5) Bound cells were quantified by crystal violet staining. Briefly, the well was fixed with 100 μl of 10% formalin for 10 minutes and dried. Fifty microliters of 0.05% crystal violet were then added into the well at room temperature for 20 minutes. Each well was washed with 200 μl of distilled water four times and dried. Colorization was carried out by adding 150 μl of colorizing solution (50% alcohol and 0.1% acetic acid). The resulting absorbance was read at 600 nm and the readings were correlated with the number of adhering cells.

B2 was tested, and the “fold increase of binding affinity against SEQ ID NO:48” value was 7 fold.

Each binder was assayed against T2, integrin αIIbβ3 (assay: cell adhesion inhibition assay (Table 4)).
Procedure: as §1, §4, §5

B3: no binding (tested: >9180 nM).
B4: no binding (tested: >4546 nM).
B5: no binding (tested: >4494 nM).
B2: no binding (tested: >62124 nM).
B6: no binding (tested: >9073 nM).
B7: no binding (tested: >9027 nM).

The binders below were run against T1, integrin αvβ3 (assay: cell-based or functional assay).

Going from B3 to B4, the “IC50, cell adhesion assay” value falls from 4580 nM to 432 nM (11-fold).

Compared with B5, B2 is 4.5-fold lower in “IC50, cell adhesion assay” value: 418 nM for the first, 93 nM for the second.

B6 and B7 are within 1.5-fold of each other in “IC50, cell adhesion assay” value: 645 nM for the first, 908 nM for the second.

What follows are binders tested against T3, integrin α5β1 (UniProt P08648 42-1049; P05556 21-798) (assay: cell-based or functional assay).
T3 sequence (P08648 42-1049, chain 1 of 2): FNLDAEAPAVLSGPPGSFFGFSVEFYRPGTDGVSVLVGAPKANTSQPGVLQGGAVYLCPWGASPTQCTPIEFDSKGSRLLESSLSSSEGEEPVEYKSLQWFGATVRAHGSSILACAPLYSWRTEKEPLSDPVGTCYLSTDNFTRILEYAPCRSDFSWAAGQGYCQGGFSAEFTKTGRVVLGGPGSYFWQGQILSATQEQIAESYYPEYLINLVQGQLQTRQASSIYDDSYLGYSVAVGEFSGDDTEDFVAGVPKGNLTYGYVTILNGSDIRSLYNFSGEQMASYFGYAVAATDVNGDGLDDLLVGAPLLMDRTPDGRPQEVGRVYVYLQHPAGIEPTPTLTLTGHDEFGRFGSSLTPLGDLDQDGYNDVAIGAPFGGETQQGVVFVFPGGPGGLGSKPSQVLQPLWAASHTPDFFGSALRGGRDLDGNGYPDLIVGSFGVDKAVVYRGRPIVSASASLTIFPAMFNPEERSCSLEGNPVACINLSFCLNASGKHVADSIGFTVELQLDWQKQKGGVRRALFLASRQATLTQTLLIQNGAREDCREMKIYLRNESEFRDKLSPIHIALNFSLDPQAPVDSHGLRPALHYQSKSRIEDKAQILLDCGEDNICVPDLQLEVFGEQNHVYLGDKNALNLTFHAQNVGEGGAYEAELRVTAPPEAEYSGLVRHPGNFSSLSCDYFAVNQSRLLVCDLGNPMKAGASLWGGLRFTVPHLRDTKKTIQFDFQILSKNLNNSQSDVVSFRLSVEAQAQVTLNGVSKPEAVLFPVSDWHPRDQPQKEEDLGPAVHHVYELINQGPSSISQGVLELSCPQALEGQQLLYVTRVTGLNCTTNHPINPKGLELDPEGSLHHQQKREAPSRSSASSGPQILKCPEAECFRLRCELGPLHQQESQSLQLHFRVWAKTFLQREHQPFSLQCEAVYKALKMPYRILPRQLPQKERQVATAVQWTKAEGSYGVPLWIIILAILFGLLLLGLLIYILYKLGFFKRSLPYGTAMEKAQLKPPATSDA
T3 sequence (P05556 21-798, chain 2 of 2): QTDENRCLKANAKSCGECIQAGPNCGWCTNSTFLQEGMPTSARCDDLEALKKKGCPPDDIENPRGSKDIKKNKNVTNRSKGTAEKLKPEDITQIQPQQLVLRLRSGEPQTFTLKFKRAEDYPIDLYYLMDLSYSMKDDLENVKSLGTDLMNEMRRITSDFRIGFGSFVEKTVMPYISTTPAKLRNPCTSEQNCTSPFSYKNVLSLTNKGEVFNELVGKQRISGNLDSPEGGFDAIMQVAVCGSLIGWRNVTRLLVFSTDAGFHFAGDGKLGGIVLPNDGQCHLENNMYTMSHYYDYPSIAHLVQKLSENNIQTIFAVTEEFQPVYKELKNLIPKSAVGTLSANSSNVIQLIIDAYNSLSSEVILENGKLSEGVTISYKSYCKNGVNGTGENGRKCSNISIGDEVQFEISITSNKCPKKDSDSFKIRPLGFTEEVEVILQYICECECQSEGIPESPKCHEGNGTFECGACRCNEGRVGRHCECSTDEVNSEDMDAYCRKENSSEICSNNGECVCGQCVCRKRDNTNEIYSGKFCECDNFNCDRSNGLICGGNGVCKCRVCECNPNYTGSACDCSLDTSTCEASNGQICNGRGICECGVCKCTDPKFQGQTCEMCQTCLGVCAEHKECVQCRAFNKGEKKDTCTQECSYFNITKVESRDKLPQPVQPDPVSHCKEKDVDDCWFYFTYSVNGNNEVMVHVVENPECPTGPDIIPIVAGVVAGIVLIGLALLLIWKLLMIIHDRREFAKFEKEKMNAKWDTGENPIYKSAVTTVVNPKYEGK

B3 and B4 cannot be ordered by “IC50, cell adhesion assay” value: > 4.59 µM for the first, > 4.55 µM for the second.

B5 and B2 cannot be ordered by “IC50, cell adhesion assay” value: > 4.49 µM for the first, > 73.2 µM for the second.

B6 and B7 cannot be ordered by “IC50, cell adhesion assay” value: > 6.8 µM for the first, > 4.51 µM for the second.

Compared with B3, B4 is lower in “percentage of inhibition, cell adhesion assay” value: 39% for the first, 0% for the second.

Compared with B5, B2 is lower in “percentage of inhibition, cell adhesion assay” value: 48% for the first, 42% for the second.

First: B6
Second: B7
The “percentage of inhibition, cell adhesion assay” value of the first is lower: 31.7% for the first, 32.5% for the second.

Each binder was assayed against T2, integrin αIIbβ3 (assay: cell-based or functional assay).

B3 and B4 cannot be ordered by “IC50, cell adhesion assay” value: > 9.18 µM for the first, > 4.55 µM for the second.

B5 and B2 cannot be ordered by “IC50, cell adhesion assay” value: > 4.49 µM for the first, > 62.1 µM for the second.

B6 and B7 cannot be ordered by “IC50, cell adhesion assay” value: > 9.07 µM for the first, > 9.03 µM for the second.

B3 and B4 cannot be ordered by “IC50, inhibition of ADP-induced platelet aggregation” value (shortened to “IC50, inhibition”): ~45 µM for the first, > 25.5 µM for the second.

First: B5
Second: B2
The “IC50, inhibition” value of the first is 6.2-fold lower: ~10 µM for the first, ~62 µM for the second.

B6 and B7 cannot be ordered by “IC50, inhibition” value: > 22.2 µM for the first, > 6.45 µM for the second.

B3 and B4 are the same in “percentage of inhibition, cell adhesion assay” value: 0% for the first, 0% for the second.

Going from B5 to B2, the “percentage of inhibition, cell adhesion assay” value rises from 0% to 19%.

B6 and B7 are the same in “percentage of inhibition, cell adhesion assay” value: 0% for the first, 0% for the second.

Going from B4 to B6, the “percentage of inhibition, ADP-induced platelet aggregation” value rises from 2% to 4%.

With B7 the “percentage of inhibition, ADP-induced platelet aggregation” value was 14%.

Target: T1, integrin αvβ3
Assay: cell-based or functional assay
Remark: another data set of the same source

B1 was tested, and the “IC50, cell adhesion assay” value was > 3.12 µM.

With B1 the “percentage of inhibition, cell adhesion assay” value was 33.2%.

Target: T3, integrin α5β1
Assay: cell-based or functional assay
Remark: another data set of the same source

B1 was tested, and the “IC50, cell adhesion assay” value was 245 nM.

Target: T2, integrin αIIbβ3
Assay: cell-based or functional assay
Remark: another data set of the same source

In the case of B1, the “IC50, cell adhesion assay” value is reported as > 4.8 µM.

In the case of B1, the “IC50, inhibition” value is reported as ~20 µM.

With B1 the “percentage of inhibition, cell adhesion assay” value was 0%.
